According to patent US8846861B2, “Peptide clearing agents” (Mologic Ltd, priority 2009, dated 2014):

Tested on: CCL 229 (LoVo) CEA expressing cell line
Experiment: Flow cytometry cell binding, CEA expressing cell line
Format: cell-based
Conditions: CCL 229, PE label, 1 hour at 4° C.
Description: Measurement by Flow Cytometry of Binding Capability of scFv Anti-CEA-CPG2 Using CEA Expressing Cells.
CRL 1573—control cell line, CCL 229 (LoVo)—CEA expressing cell line
Cultured cells were both used at 2×10^5 cells per tube, cells in tubes were prepared to contain the following
Cells were spun down and 100 μl of antibody solution was added to respective tube. 100 μl buffer was added to tubes 1 and 2 and left in fridge until later.
Tubes were incubated in the dark at 4° C. for 1 hour, add 1 ml PBSAB and spun as above. Include tube 1 in this wash. The supernatant was removed and 100 μl conjugate was added to tube 6 for a further incubation of 1 hr in the dark at 4° C.
Added 150 μl 0.5% formaldehyde to tubes 1, 3, 4 and 5, stored in the fridge until measured (˜2 hours). Washed tube 6 as before and add formaldehyde to this tube. 30 minutes before measuring add 100 μl Propidium Iodine to tube 2, before measuring, added 1 ml of PBS to all samples.

B1: CPG2 control: carboxypeptidase G2 conjugated to phycoerythrin, control without anti-CEA part (protein)
chain: ALAQKRDNVLFQAATDEQPAVIKTLEKLVNIETGTGDAEGIAAAGNFLEAELKNLGFTVTRSKSAGLVVGDNIVGKIKGRGGKNLLLMSHMDTVYLKGILAKAPFRVEGDKAYGPGIADDKGGNAVILHTLKLLKEYGVRDYGTITVLFNTDEEKGSFGSRDLIQEEAKLADYVLSFEPTSAGDEKLSLGTSGIAYVQVNITGKASHAGAAPELGVNALVEASDLVLRTMNIDDKAKNLRFNWTIAKAGNVSNIIPASATLNADVRYARNEDFDAAMKTLEERAQQKKLPEADVKVIVTRGRPAFNAGEGGKKLVDKAVAYYKEAGGTLGVEERTGGGTDAAYAALSGKPVIESLGLPGFGYHSDKAEYVDISAIPRRLYMAARLIMDLGAGK
binding to cells by flow cytometry (in words): does not bind
